In assay [1] the target is Recombinant soluble murine αMβ2 integrin (R&D Systems) (murine) (UniProt P05555). The experiment in a line: ELISA, murine αMβ2 integrin coated, ACT serially diluted, with calcium, rabbit anti-ACT detection.
The target in assay [2] is αMβ2 integrin on J774A.1 murine macrophage cells (murine) (UniProt P05555). Briefly: flow cytometry: biotinylated ACT on J774A.1 cells on ice, no scAb, detected with streptavidin-PE; background: cells only 274, non-biotinylated ACT 292. For orientation: Flow cytometry measures light scatter and fluorescence of single cells or particles in a stream.
Assay [3] addresses Recombinant soluble murine αMβ2 integrin (R&D Systems) (murine) (UniProt P05555). The experiment in a line: ELISA, murine αMβ2 integrin coated, domain serially diluted, with calcium, rabbit anti-ACT detection.

For “Bordetella adenylate cyclase toxin (ACT), full-length, acylated (from UniProt J7QLC0 1-1706)”, in assay [1], the concentration giving a half-maximal response (EC50) (in general, the concentration at which the effect is half-maximal) amounted to 20 nM. In assay [2], this substance came in with a mean fluorescence (PE-A) of 4810.

For the substance “RTX751*, RTX domain of ACT, residues 751-1706, acylated (from UniProt J7QLC0 751-1706)”, the 50% effective concentration (EC50) in assay [3] worked out at 20 nM.

The values above are taken from patent US20180256699A1.
